# Square brackets hold non-standard residues; d marks the D form. Ends that are not written are not given here. Pra = C#CC[C@H](N)C(=O)O
# Assay: PADRE peptide solubility / staying in solution
# Assay type: physicochemical
# Experimental: It is possible that the PADRE constructs disclosed herein may have solubility limitations in aqueous solutions (<5 mg/ml max concentration) versus DMSO solutions (<10 mg/ml max concentration), so conditions for PADRE solubility were adjusted to achieve optimum click conjugation efficiency. Ionic gelling may have occurred during the CDAP or DMTMM direct incorporation of PADRE 2, as buffer matrix with high ionic strength in higher concentrated Pn3 solutions promotes gelling. Aggregation with an alkynated CRM197 batch fed approach was also observed in click conjugation reactions. To avoid potential solubility issues, the following conditions with PADRE 3 were proposed: 1. Lower the ionic strength of the reaction matrix and diafiltration matrix to 10 mM phosphate pH 7.0, 2. Slow dose addition of alkynated PADRE 3 into the reaction, and 3. make stock solution of alkynated PADRE 3 in water instead of DMSO to eliminate the need for a lyophilization step.
# A reaction was run omitting DMSO from a click conjugate protocol for alkynated trimeric gp120 Epitope mimic peptides using 5 mM Sodium ascorbate, 5 mM aminoguanidine, 0.1 mM CuSO4, and 0.5 mM THPTA ligand in 10 mM phosphate buffer at pH 7.4 containing 5% DMSO for 18 hr [Schellinger et al. (2011) J Am Chem Soc 133(10):3230-3233]. […]
substance,measurement,setting,value
{d-ALA}KVAAWTLKAA{d-ALA}{Pra} ([dA]KVAAWTLKAA[dA][Pra]) [PADRE 3],peptide solution solubility,"37° C. in the incubator at 200 rpm agitation, DMSO omitted",stayed soluble
same,stock solution staying in solution,"alkynated PADRE 3 stock in water, after 18 hr at room temperature",did not come out of solution

# From US20260191943A1, “Methods for Preparing Conjugated Capsular Saccharide Antigens and Uses Thereof” (PFIZER INC., priority 2022, published 2026)
